In paper PMC3477848 (Biochemistry, 2012):
Where two headings read alike, the source gives them in different places.

Columns and labels:
[1] = biological target: T1, Dpo4 (SsoDpo4, Y-family DNA polymerase) (Sulfolobus solfataricus, UniProt Q97W02 1-352); test: ITC
T1 sequence: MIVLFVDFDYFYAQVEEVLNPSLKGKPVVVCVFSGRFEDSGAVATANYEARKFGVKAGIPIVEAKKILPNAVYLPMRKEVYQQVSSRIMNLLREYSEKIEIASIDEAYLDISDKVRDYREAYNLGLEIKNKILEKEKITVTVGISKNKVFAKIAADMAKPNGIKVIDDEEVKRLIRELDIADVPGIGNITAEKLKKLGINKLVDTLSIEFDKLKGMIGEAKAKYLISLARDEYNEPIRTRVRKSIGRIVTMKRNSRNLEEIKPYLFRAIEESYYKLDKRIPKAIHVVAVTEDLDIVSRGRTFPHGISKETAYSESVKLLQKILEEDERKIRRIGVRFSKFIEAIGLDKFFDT

[2] = biological target: T1, Dpo4 (SsoDpo4, Y-family DNA polymerase); test: ITC; remark: listed apart in the source
[3] = biological target: the molecule itself; test: cross-linking

Binder: TTTTTTTTTTCCCGGGCCGGCGTTTCGCCGGCCCGGG (structured_DNA) [37-nt hairpin primer-template, unlabeled]
- Ka [1]: 652000 M⁻¹
- Ka [2]: 2.23e+06 M⁻¹

B1: Dpo4, wild-type untagged, Y-family lesion bypass (repair) DNA polymerase of Sulfolobus solfataricus (enzyme)
chain: T1 sequence
- stoichiometry N [3]: 2
